Our source for the IC50 values is US8815802 (Novo Nordisk, dated 2014).

Numbered stars: 1 amine (or outer) side, 2 acyl side, 3 side chain; on linkers, the order of the positions; unused ones are H or OH. Square brackets hold non-standard residues; d marks the D form. Side chains are listed from the residue outwards. Ends that are not written are not given here. * marks the point of attachment. Malonyl(2,2-Me2,histaminyl) = CC(C)(C(=O)NCCc1cnc[nH]1)C(=O)*; C20 diacid = O=C(O)CCCCCCCCCCCCCCCCCCC(=O)*; C18 diacid = O=C(O)CCCCCCCCCCCCCCCCC(=O)*; C16 diacid = O=C(O)CCCCCCCCCCCCCCC(=O)*; γGlu = O=C(O)[C@H](CCC(=O)[*:2])N[*:1]; Palmitoyl = CCCCCCCCCCCCCCCC(=O)*; AEEA = NCCOCCOCC(=O)O; Aib = CC(C)(N)C(=O)O; Inp = O=C(O)C1CCNCC1 Where only a bound is given, the exact number is not on record here.

The term IC50 denotes the concentration that inhibits the measured activity by half.

Test [1] deals with T1, human GLP-1 receptor (human, UniProt P43220 24-463).
T1 construct: whole, on cells; Used as purified plasma membranes of the transfected hamster cell line, not as intact cells; also called hGLP-1
In words: SPA, displacement of 125I-GLP-1(7-36)NH2 from hGLP-1R membranes, 0.005% HSA. As for the experimental part: (§1) 25 ul (micro liter) of test compounds were added to Optiplate. HSA ("high albumin" experiment containing 2% HSA), or buffer ("low albumin" experiment containing 0.005% HSA), was added (50 ul). 5-10 ug protein/sample was added (50 ul) corresponding to 0.1-0.2 mg protein/ml (to be preferably optimised for each membrane preparation). SPA-particles (Wheatgerm agglutinin SPA beads, Perkin Elmer, #RPNQ0001) were added in an amount of 0.5 mg/well (50 ul). […] The plates were sealed with PlateSealer and incubated for 120 minutes at 30° C. while shaking. The plates were centrifuged (1500 rpm, 10 min) and counted in Topcounter.
For orientation: Displacement assays read how much labelled ligand stays bound in the presence of the test substance.

Test [2] addresses T1, human GLP-1 receptor. In words: SPA, displacement of 125I-GLP-1(7-36)NH2 from hGLP-1R membranes, 2.0% HSA. As to the method:
as §1

As for {Malonyl(2,2-Me2,histaminyl)}-EGTFTSDVSSYLEGQAAK([AEEA-AEEA-γGlu-C18 diacid])EFIAHLVQGRG (also called Chem. 37), the IC50 with human GLP-1 receptor [1] was below 600 nM; with human GLP-1 receptor [2], at most 1000 nM.
Consider H[dA]EGTFTSDVSSYLEGQAAK([AEEA-AEEA-γGlu-C18 diacid])EFIAHLVQGRG, for which the IC50 with human GLP-1 receptor [1] is below 600 nM; with human GLP-1 receptor [2], at most 1000 nM.

B1: [Aib^8,His^31,Gln^34]GLP-1(7-37)-peptide (peptide)
peptide: HXEGTFTSDVSSYLEGQAAKEFIAHLVQGRG
modifications: Aib8 (GLP-1(7-37) numbering)
notes: unacylated analogue; also called (8Aib, 31H, 34Q)
Regarding B1, the 50% inhibitory concentration (IC50) is below 600 nM with human GLP-1 receptor [1] and at most 1000 nM with human GLP-1 receptor [2].
Taken in the same sequence, the figures for HXEGTFTSDVSSYLEGQAAKEFIAHLVQGRG (Aib8; Lys26 N-epsilon-acylated (side chain as in name); GLP-1(7-37) numbering) [N^ε26 [(S)-4-Carboxy-4-(15-carboxypentadecanoylamino)butyryl][Aib^8,His^31,Gln^34]GLP-1(7-37)-peptide, listing 1 of 4 here] were below 600 nM and at most 1000 nM.
For HXEGTFTSDVSSYLEGQAAKEFIAHLVQGRG (Aib8; Lys26 N-epsilon-acylated (side chain as in name); GLP-1(7-37) numbering) [N^ε26-[2-(2-{2-[2-(2-{2-[(S)-4-Carboxy-4-(15-carboxypentadecanoylamino)butyrylamino]ethoxy}ethoxy)acetylamino]ethoxy}ethoxy)acetyl][Aib^8,His^31,Gln^34]GLP-1(7- …, listing 2 of 4 here], the IC50 in the test with human GLP-1 receptor [1] was below 600 nM; with human GLP-1 receptor [2], at most 1000 nM.
For the molecule HXEGTFTSDVSSYLEGQAAKEFIAHLVQGRG (Aib8; Lys26 N-epsilon-acylated (side chain as in name); GLP-1(7-37) numbering) [N^ε26 [2-(2-(2-{2-[(S)-4-Carboxy-4-(15-carboxypentadecanoylamino)butyrylamino]ethoxy}ethoxy)acetyl][Aib^8,His^31,Gln^34]GLP-1(7-37)-peptide, listing 3 of 4 here], the half-maximal inhibitory concentration (IC50) with human GLP-1 receptor [1] was below 600 nM; in the test with human GLP-1 receptor [2] it was at most 1000 nM.
Regarding HXEGTFTSDVSSYLEGQAAKEFIAHLVQGRG (Aib8; Lys26 N-epsilon-acylated (side chain as in name); GLP-1(7-37) numbering) [N^ε26 [(S)-4-Carboxy-4-(2-{2-[2-(2-{2-[2-(17-carboxy-heptadecanoylamino)ethoxy]ethoxy}acetylamino)ethoxy]-ethoxy}acetylamino)butyryl] …, listing 4 of 4 here], the IC50 in the test with human GLP-1 receptor [1] is below 600 nM; in the test with human GLP-1 receptor [2], at most 1000 nM.
On to H[Aib]EGTK([AEEA-AEEA-γGlu-C18 diacid])TSDVSSYLEGQAAKEFIAHLVQGRG, for which the IC50 is below 600 nM in the test with human GLP-1 receptor [1] and at most 1000 nM with human GLP-1 receptor [2].
As for H[Aib]EGTK([AEEA-AEEA-γGlu-C18 diacid])TSDVSSYLEEQAAREFIAHLVQGRG, the results for the IC50 with human GLP-1 receptor [1] and with human GLP-1 receptor [2] were below 600 nM and at most 1000 nM, respectively.
Turning to H[Aib]EGTFTSDK([AEEA-AEEA-γGlu-C18 diacid])SSYLEEQAAREFIAHLVQGRG, the IC50 in the test with human GLP-1 receptor [1] was below 600 nM; with human GLP-1 receptor [2], at most 1000 nM.
In the case of H[Aib]EGTFTSDVSSYLEEQK([AEEA-AEEA-γGlu-C18 diacid])AREFIAHLVQGRG, the IC50 with human GLP-1 receptor [1] is below 600 nM; in the test with human GLP-1 receptor [2], at most 1000 nM.
H[Aib]EGTK([AEEA-AEEA-C18 diacid])TSDVSSYLEEQAAREFIAHLVQGRG: the figures for the IC50 with human GLP-1 receptor [1] and with human GLP-1 receptor [2] were below 600 nM and at most 1000 nM, respectively.
As to H[Aib]EGTFTSDVSK([AEEA-AEEA-γGlu-C18 diacid])YLEEQAAREFIAHLVQGRG, the IC50 with human GLP-1 receptor [1] was below 600 nM; with human GLP-1 receptor [2], at most 1000 nM.
On to H[Aib]EGTFTSDVSK([AEEA-AEEA-γGlu-Inp-C20 diacid])YLEEQAAHEFIAHLVQGRG, for which the results for the IC50 with human GLP-1 receptor [1] and with human GLP-1 receptor [2] were below 600 nM and at most 1000 nM, respectively.
As to H[Aib]EGTFTSDVSSYLEEQAARK([AEEA-AEEA-γGlu-C18 diacid])FIEHLVQGRP, the IC50 with human GLP-1 receptor [1] is below 600 nM; with human GLP-1 receptor [2], at most 1000 nM.
Taken in the same sequence, the figures for H[Aib]EGTFTSDVSSYLEEQAARK([AEEA-AEEA-γGlu-C18 diacid])FIAHLVQGRG were below 600 nM and at most 1000 nM.
As for H[Aib]EGTFTSDVSSYLEGQAARK([AEEA-AEEA-γGlu-C18 diacid])FIAHLVQGRG, the IC50 with human GLP-1 receptor [1] was below 600 nM; with human GLP-1 receptor [2] it was at most 1000 nM.
For the molecule H[Aib]EGTFTSDVSSYLEGQAIRK([AEEA-AEEA-γGlu-C18 diacid])FIAHLVQGRG, the IC50 with human GLP-1 receptor [1] is below 600 nM; with human GLP-1 receptor [2], at most 1000 nM.
For the molecule HAEGTFTSDVSSYLEGQAAK([γGlu-Palmitoyl])EFIAHLVQGRG [N^ε26-[(4S)-4-carboxy-4-(hexadecanoylamino)butanoyl]-[His^31,Gln^34]-GLP-1-(7-37)-peptide], the IC50 was below 600 nM with human GLP-1 receptor [1] and at most 1000 nM with human GLP-1 receptor [2].
For HAEGTFTSDVSSYLEGQAAK([AEEA-AEEA-γGlu-C18 diacid])EFIAHLVQGRG, the concentration for half-maximal inhibition (IC50) is below 600 nM in the test with human GLP-1 receptor [1] and at most 1000 nM with human GLP-1 receptor [2].
For HGEGTFTSDVSSYLEGQAAK([AEEA-AEEA-γGlu-C18 diacid])EFIAHLVQGRG, in that order: below 600 nM and at most 1000 nM.
As for HSEGTFTSDVSSYLEGQAAK([AEEA-AEEA-γGlu-C18 diacid])EFIAHLVQGRG, the IC50 with human GLP-1 receptor [1] is below 600 nM; in the test with human GLP-1 receptor [2], at most 1000 nM.
For HAEGTK([AEEA-AEEA-C18 diacid])TSDVSSYLEEQAAREFIAHLVQGRG, the IC50 is below 600 nM with human GLP-1 receptor [1] and at most 1000 nM with human GLP-1 receptor [2].
As for HAEGTFTSDVSSYLEEQK([AEEA-AEEA-γGlu-C18 diacid])AREFIAHLVQGRG, the IC50 in the test with human GLP-1 receptor [1] was below 600 nM; with human GLP-1 receptor [2], at most 1000 nM.
For HAEGTK([AEEA-AEEA-γGlu-C18 diacid])TSDVSSYLEEQAAREFIAHLVQGRG, the IC50 in the test with human GLP-1 receptor [1] was below 600 nM; in the test with human GLP-1 receptor [2], at most 1000 nM.
On to HAEGTFTSDVSSYLEK([AEEA-AEEA-γGlu-C18 diacid])QAAREFIAHLVQGRG, for which the IC50 in the test with human GLP-1 receptor [1] was below 600 nM; with human GLP-1 receptor [2], at most 1000 nM.

B2: N^8 3H-Imidazol-4-yl-acetyl, N^ε28-[2-(2-{2-[2-(2-{2-[(S)-4-Carboxy-4-(17-carboxyheptadecanoylamino)butyrylamino]ethoxy}ethoxy)acetylamino] … (peptide)
peptide: AEGTFTSDVSSYLEGQAAK([AEEA-AEEA-γGlu-C18 diacid])EFIAHLVQGRG
modifications: not fully specified (N-terminus); printed as N^8 3H-Imidazol-4-yl-acetyl, N^ε28-[2-(2-{2-[2-(2-{2-[(S)-4-Carboxy-4-(17-carboxyheptadecanoylamino)butyrylamino]ethoxy}ethoxy)acetylamino] ethoxy}ethoxy)acetyl][His^31,Gln^34]GLP-1(8-37)-peptide
As to B2, the IC50 with human GLP-1 receptor [1] was below 600 nM; with human GLP-1 receptor [2], at most 1000 nM.
Regarding HAEGTFTSDVSSYLEGQAAK([γGlu-C16 diacid])EFIAHLVQGRG [N^ε26-[(4S)-4-carboxy-4-(15-carboxypentadecanoylamino)butanoyl]-[His^31,Gln^34]-GLP-1-(7-37)-peptide], the IC50 with human GLP-1 receptor [1] is below 600 nM; with human GLP-1 receptor [2], at most 1000 nM.
